US20040022772A1 (University of Texas, published 2004)

Biological target: T1, p185 BCR-ABL (human, UniProt P00519 27-1130)
T1 construct: Endogenous protein of the SUP-B15 ALL cell line; also called Bcr-Abl oncoprotein (SUP-B15 cells)
Test: co-precipitation of Bcr-Abl with Bcr by anti-BCR (1256-1271), immunokinase assay, SUP-B15 cells
Protocol: The effects of the sense and antisense 3′ BCR oligonucleotides were tested on BCR expression in SUP-Bi5 cells, a cell line derived from a Ph¹-positive acute lymphocytic leukemia patient that expresses p185 BCR—ABL.
In this study, equal amounts of the sense and the antisense oligonucleotide treated B15 cells were analyzed.

binding result: binds
B1: p160 BCR (enzyme, human, UniProt P11274 1-1271, looked up)
chain: MVDPVGFAEAWKAQFPDSEPPRMELRSVGDIEQELERCKASIRRLEQEVNQERFRMIYLQTLLAKEKKSYDRQRWGFRRAAQAPDGASEPRASASRPQPAPADGADPPPAEEPEARPDGEGSPGKARPGTARRPGAAASGERDDRGPPASVAALRSNFERIRKGHGQPGADAEKPFYVNVEFHHERGLVKVNDKEVSDRISSLGSQAMQMERKKSQHGAGSSVGDASRPPYRGRSSESSCGVDGDYEDAELNPRFLKDNLIDANGGSRPPWPPLEYQPYQSIYVGGMMEGEGKGPLLRSQSTSEQEKRLTWPRRSYSPRSFEDCGGGYTPDCSSNENLTSSEEDFSSGQSSRVSPSPTTYRMFRDKSRSPSQNSQQSFDSSSPPTPQCHKRHRHCPVVVSEATIVGVRKTGQIWPNDGEGAFHGDADGSFGTPPGYGCAADRAEEQRRHQDGLPYIDDSPSSSPHLSSKGRGSRDALVSGALESTKASELDLEKGLEMRKWVLSGILASEETYLSHLEALLLPMKPLKAAATTSQPVLTSQQIETIFFKVPELYEIHKEFYDGLFPRVQQWSHQQRVGDLFQKLASQLGVYRAFVDNYGVAMEMAEKCCQANAQFAEISENLRARSNKDAKDPTTKNSLETLLYKPVDRVTRSTLVLHDLLKHTPASHPDHPLLQDALRISQNFLSSINEEITPRRQSMTVKKGEHRQLLKDSFMVELVEGARKLRHVFLFTDLLLCTKLKKQSGGKTQQYDCKWYIPLTDLSFQMVDELEAVPNIPLVPDEELDALKIKISQIKNDIQREKRANKGSKATERLKKKLSEQESLLLLMSPSMAFRVHSRNGKSYTFLISSDYERAEWRENIREQQKKCFRSFSLTSVELQMLTNSCVKLQTVHSIPLTINKEDDESPGLYGFLNVIVHSATGFKQSSNLYCTLEVDSFGYFVNKAKTRVYRDTAEPNWNEEFEIELEGSQTLRILCYEKCYNKTKIPKEDGESTDRLMGKGQVQLDPQALQDRDWQRTVIAMNGIEVKLSVKFNSREFSLKRMPSRKQTGVFGVKIAVVTKRERSKVPYIVRQCVEEIERRGMEEVGIYRVSGVATDIQALKAAFDVNNKDVSVMMSEMDVNAIAGTLKLYFRELPEPLFTDEFYPNFAEGIALSDPVAKESCMLNLLLSLPEANLLTFLFLLDHLKRVAEKEAVNKMSLHNLATVFGPTLLRPSEKESKLPANPSQPITMTDSWSLEVMSQVQVLLYFLQLEAIPAPDSKRQSILFSTEV
notes: also called normal Bcr protein; wild-type Bcr
